Laboratory results taken from patent US20230113563A1 (SYSTIMMUNE, published 2023).

B1: human MICA (Acro, MIA-H5221) (ligand, UniProt Q29983 24-307, looked up)
chain: EPHSLRYNLTVLSWDGSVQSGFLTEVHLDGQPFLRCDRQKCRAKPQGQWAEDVLGNKTWDRETRDLTGNGKDLRMTLAHIKDQKEGLHSLQEIRVCEIHEDNSTRSSQHFYYDGELFLSQNLETKEWTMPQSSRAQTLAMNVRNFLKEDAMKTKTHYHAMHADCLQELRRYLKSGVVLRRTVPPMVNVTRSEASEGNITVTCRASGFYPWNITLSWRQDGVSLSHDTQQWGDVLPDGNGTYQTWVATRICQGEEQRFTCYMEHSGNHSTHPVPSGKVLVLQSHW
notes: Bought reagent used as analyte in solution; also called NKG2D ligand MICA

Experiments:
[1] = molecular target: B1; experiment: BLI (Octet); GNC protein loaded on AHC sensors at 5 ug/ml; human MICA as analyte, 1:2 serial dilutions from 100 nM; global fit, 1:1 model
Protocol: (§1) To validate functionality of the NKG2D receptor in the D2 position, Octet binding was performed. GNC protein was loaded onto AHC sensors at 5 ug/ml, and subsequently bound to 1:2 serial dilutions (top concentration 100 nM) of human MICA (Acro, MIA-H5221).

SI-49P7 = molecular target: T1, SI-49P7; experiment: as above
T1 construct: Penta-specific GNC: same structure as SI-49P6, but with 4-1BB ligand trimer at D4 instead of the anti-4-1BB scFv
T1 sequence (heavy, as listed by the source): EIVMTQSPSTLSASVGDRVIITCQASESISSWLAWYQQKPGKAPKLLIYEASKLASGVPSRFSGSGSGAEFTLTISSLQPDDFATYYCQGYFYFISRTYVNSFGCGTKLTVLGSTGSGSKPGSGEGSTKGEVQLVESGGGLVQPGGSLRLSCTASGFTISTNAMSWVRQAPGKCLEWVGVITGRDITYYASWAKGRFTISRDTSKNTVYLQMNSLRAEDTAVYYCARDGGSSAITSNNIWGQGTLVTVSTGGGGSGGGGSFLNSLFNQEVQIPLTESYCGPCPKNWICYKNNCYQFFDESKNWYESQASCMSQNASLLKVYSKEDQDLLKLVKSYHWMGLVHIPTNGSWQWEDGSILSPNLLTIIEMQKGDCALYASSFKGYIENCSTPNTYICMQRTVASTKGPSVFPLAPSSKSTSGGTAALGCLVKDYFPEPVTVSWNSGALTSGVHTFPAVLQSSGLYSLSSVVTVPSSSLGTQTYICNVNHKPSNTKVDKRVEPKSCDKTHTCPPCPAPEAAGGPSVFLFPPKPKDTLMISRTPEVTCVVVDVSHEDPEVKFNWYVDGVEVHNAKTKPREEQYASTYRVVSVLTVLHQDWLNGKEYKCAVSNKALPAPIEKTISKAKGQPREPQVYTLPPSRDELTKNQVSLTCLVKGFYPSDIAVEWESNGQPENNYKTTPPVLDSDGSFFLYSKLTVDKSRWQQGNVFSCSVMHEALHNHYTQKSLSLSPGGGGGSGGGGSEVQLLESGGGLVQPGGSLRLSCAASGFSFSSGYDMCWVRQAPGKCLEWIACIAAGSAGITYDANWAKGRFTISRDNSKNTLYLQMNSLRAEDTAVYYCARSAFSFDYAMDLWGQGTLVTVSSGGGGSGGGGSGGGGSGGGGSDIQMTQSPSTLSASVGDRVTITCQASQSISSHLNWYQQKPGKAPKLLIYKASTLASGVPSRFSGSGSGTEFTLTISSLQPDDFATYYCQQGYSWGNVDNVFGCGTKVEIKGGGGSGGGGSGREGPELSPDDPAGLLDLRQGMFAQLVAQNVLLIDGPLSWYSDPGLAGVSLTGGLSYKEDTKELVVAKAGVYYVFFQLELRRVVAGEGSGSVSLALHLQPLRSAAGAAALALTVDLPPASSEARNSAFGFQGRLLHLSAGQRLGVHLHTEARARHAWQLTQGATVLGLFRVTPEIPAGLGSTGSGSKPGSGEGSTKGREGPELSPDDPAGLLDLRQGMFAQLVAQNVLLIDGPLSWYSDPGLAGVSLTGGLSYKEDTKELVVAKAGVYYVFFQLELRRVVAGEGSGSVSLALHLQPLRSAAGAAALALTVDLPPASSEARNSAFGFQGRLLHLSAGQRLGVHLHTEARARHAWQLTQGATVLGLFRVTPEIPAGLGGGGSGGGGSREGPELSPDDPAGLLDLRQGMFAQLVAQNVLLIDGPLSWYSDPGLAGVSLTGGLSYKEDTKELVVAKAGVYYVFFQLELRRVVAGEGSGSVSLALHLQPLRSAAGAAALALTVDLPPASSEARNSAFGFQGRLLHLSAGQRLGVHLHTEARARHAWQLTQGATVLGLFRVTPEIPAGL
Protocol: as §1

| Kd [1] | Kd (SI-49P7) | Binder |
| --- | --- | --- |
| 14.9 nM |  | SI-49R23 (Fc fusion, Monospecific protein with NKG2D directly fused to the antibody Fc domain; Two copies are inferred from the Fc dimer) FLNSLFNQEVQIPLTESYCGPCPKNWICYKNNCYQFFDESKNWYESQASCMSQNASLLKVYSKEDQDLLKLVKSYHWMGLVHIPTNGSWQWEDGSILSPNLLTIIEMQKGDCALYASSFKGYIENCSTPNTYICMQRTVASEPKSSDKTHTCPPCPAPEAAGGPSVFLFPPKPKDTLMISRTPEVTCVVVDVSHEDPEVKFNWYVDGVEVHNAKTKPREEQYASTYRVVSVLTVLHQDWLNGKEYKCAVSNKALPAPIEKTISKAKGQPREPQVYTLPPSRDELTKNQVSLTCLVKGFYPSDIAVEWESNGQPENNYKTTPPVLDSDGSFFLYSKLTVDKSRWQQGNVFSCSVMHEALHNHYTQKSLSLSPGK |
|  | 11.2 nM | B1 |
| 3.93 nM |  | SI-49R19 (bispecific antibody, Bispecific GNC: anti-CD3 scFv (αCD3-alt) at D1 and NKG2D at D2) heavy: not shown light: FLNSLFNQEVQIPLTESYCGPCPKNWICYKNNCYQFFDESKNWYESQASCMSQNASLLKVYSKEDQDLLKLVKSYHWMGLVHIPTNGSWQWEDGSILSPNLLTIIEMQKGDCALYASSFKGYIENCSTPNTYICMQRTVRTVAAPSVFIFPPSDEQLKSGTASVVCLLNNFYPREAKVQWKVDNALQSGNSQESVTEQDSKDSTYSLSSTLTLSKADYEKHKVYACEVTHQGLSSPVTKSFNRGEC |
